Experimental findings from a protein production outcome set (Wang et al. 2014) are described below.

The nature of the data set: label from the status in PepcDB records.

On to “MDDWRRFAQQMASLARDLLSQESLHDTLDRITASATELVEDCDAAGILILRGTKVQSLAPTEQVVIDSDALQGRVGEGPCFDAARSGTGERQFRIADFTDEAQRWPKYVPEARKLNLGSMMGFLLFTEDEDLGALNMYSYRPGAFTEADETAGWLLASHAAVAFSSARTHAQMQEAIGTRHIIGEAMGILMGRHRMSEDQAFAALRRYSQDHNVKLRNVAAQVCERGGLPEPTDKR”, for which the protein production result is “failed”.

“MDDYSLDEFRRRWQEELAQAQAPKKRRRPEAAERRARRPEVGSGRSEQASGDPALAQGLLEGAGRPPAARATRAEGQDVASRSRSPLAREGAGGGEQLVDQLIRDLNEMNDVPFFDIQLPYELAINIFQYLDRKELGRCAQVSKTWKVIAEDEVLWYRLCQQEGHLPDSSISDYSCWKLIFQECRAKEHMLQTNWKNRKGAVSELEHVPDTVLCDVHSHDGVVIAGYTSGDVRVWDTRTWDYVAPFLESEDEEDEPGMQPNVSFVRINSSLAVAAYEDGFLNIWDLRTGKYPVHRFEHDARIQALALSQDDATVATASAFDVVMLSPNEEGYWQIAAEFEVPKLVQYLEIVPETRRYPVAVAAAGDLMYLLKAEDSARTILYAHGPPVTCLDVSANQVAFGVQGLGWVYEGSKILVYSLEAGRRLLKLGNVLRDFTCVNLSDSPPNLMVSGNMDGRVRIHDLRSGNIALSLSAHQLRVSAVQMDDWKIVSGGEEGLVSVWDYRMNQKLWEVYSGHPVQHISFSSHSLITANVPYQTVMRNADLDSFTTHRRHRGLIRAYEFAVDQLAFQSPLPVCRSSCDAMATHYYDLALAFPYNHV”: the protein production result is reported as “failed”. As to “MDEADSGGIVTARNVDLSSCDRELVQYPEAIQPHGAMLTVDEQSDRVLHASANCAAFIGKPPEAVIGAPIAAVLGAGWHELLGSLHRMPLDSGPVNIARESFLGSDQGWHLFAHRCGGLIILEFEKAEPEAAGTTSNLYSEVRADLAALQATEGVQAFFDLAVERIRAFTGYDRVMAYRFAEDGSGQVIAEARRDDLEPYLGLHYPATDIPAPARRLFALSWVRHLPDVGYTPVPLLAAKSPLVTGPVDMSFASLRSVSVMYTGYLKNMGVQSTLVMPLVKEGRLWGLISAMHHAAPRHISHQMRMAAEFLAHTLSLLMSAKEDAEQFERSSARKAAAEALTRLLDSEADIGAALHAAGALDLLSALIDAGGVVVQTGDEVATRGEAPAAAPLHELTSWLRERARPVFATDRLPNLDPAAQAVASQASGVLALRPLPDQPMLIAWLRPEQIEDVQWAGDPRKPVEISDADGMQRLRPRNSFALWKESVQGRAVPWRDDEKDAATRLAAAIAEIAAARKGRIERINRALDASHSELSRYTDVASAELKEHLRGIHHLTTSLRRRQGEVLDEEGRQQVATILKLTQRMDALVDALLDRSRGGSEAASETVDLEAVVDDALAPFARRIAEDRIEVRRPMRLGTAQGHREWIGEVFTNLIGNAIRYNDKPERWIEIGVEAGSPPRYYVRDNGIGIADTDQQLVFQMFHRVDQSEQKAEGAGVGLAMTRRIVAHHGGRIWVQSRLGEGATFYFTLAPDEERHDA”, the protein production result is listed as “failed”. In the case of “MDEIDLRILKILQYNAKYSLDEIAREIRIPKSTLSYRIKKLEKDGVIKGYYAYINPASLNLDYIVITSVKAKYGKNYHVELGNKLAQIPGVWGVYFVLGDNDFIVMARYKTREEFMEKFLERVMSIPEVERTSTQVVVKIIKESPNIVIF” it was “not failed”. With “MDEIESLIGLRPTPLTWPVVIAGDFLGVWDPPPSLPGAANHEISAPTARISCMLIERRDAAARLRRALHRAPVVLLTGPRQAGKTTLSRLVGKSAPECTFDAENPVDATRLADPMLALSGLSGLITIDEAQRIPDLFPVLRVLVDRPVMPARFLILGSASPDLVGLASESLAGRVELVELSGLTVRDVGSSAADRLWLRGGLPPSFTARSNEDSAAWRDGYITTFLERDLAQLGVRIPAATMRRAWTMLAHYHGQLFSGAELARSLDVAQTTARRYLDALTDALVVRQLTPWFANIGKRQRRSPKIYIRDTGLLHRLLGIDDRLALERNPKLGASWEGFVLEQLAALLAPNPLYYWRTQQDAELDLYVELSGRPYGFEIKRTSTPSISRSMRSALVDLQLARLAIVYPGEHRFPLSDTVVAVPADQILTTGSVDELLALLK”, the protein production entry was “failed”.

Take “MDEKPAITKIISGGQTGADRAALDFAIKHHIPYGGWVPKGRLAEGGRVPETYQLQEMPTSDYSKRTEKNVLDSDGTLIISHGILKGGSALTEFFAEQYKKPCLHIDLDRISIEDAATLINSWTVSHHIQVLNIAGPRAGKDPEIYQATMDLLEVFLA”: the protein production result was “not failed”. As for “MDELFAKAPIKKVYFKLALPVVLGMITTMIYNLADTMFVAKTSDTNLVAGITIGAPLFTFLIAVSDIFGLGGSSLISRLFGERNYQLSKRVSSFCMIGGFVTGLILTAILLIFENPILHLLGAKAATYQDAADFYRIISIGAAPIVFSIIPQNLIRTEGLATQAMIATMTGTILAIILDPIFLFVFKMGAIGVGIANITGYLVTDIILIYYVLCKTEYIKLKLKYTKISGKTIKDIVAIGIPGSITNFAQSFGMALLNSSLALYGANKVAAMGITQKIYSIVILVIVGFAFGSQPLIGYNYGAKNWKRLKKILNFDILVQVVYAVVSGGLLILFARPVTALFMNQPDIVNAGSYMLIATIITTPIVGIILVYTTVFQSVGNAWAAFIMAIARQGVVYFIALETLKNIFGYHGIVWAQAVSDVITCIIGYFIYEKSLDLKDKIKN”, the protein production result is listed as “failed”.

Take “MDERRAVVLVDELHLRKGGYEAEKVRVFAVRVSETLWAFKALWGSTPFTGTTFV”: the protein production entry is given as “failed”. To “MDEYAGRVLADRYRLPLPPSDEYELAETRAFDTYSGQEVLVRQVPLPEVVEAEVLDADGLPAGFVARDGGTRRASARTATRRPAEPAVRRAIEAAQAAAQIPDHPRLDQVFDVFAEGGSLWIVSELVAARPLAALLADKPLSPYRAAEVASDVLMALRVLHAHGWVHRNITVRTVLVCDDGRVMLTGLAAGAAEEALCGYDPVPVRDFEPRGDDGGDGTGGNGRGAVRGAAAGGTPGIGSGPGAGSGRPGIGAGSGGPVGAAGGAVGAAAGGMSVAEAEAARRAAIEARAGGVGPVAGTPGGEVPARGARALEGGGDARAQRAGAIAAYRAGARAAARVQEAQRGGRAALPAPRPADAEGRAPQSPGHGVEHLPGALPGQIADPYGVARTNSWPGGFPGDVGGANVGGAYGTPGNGSGTYENGSVPHAPADAPVSTPTPADAVPPTHWDHLVSGSSAPSGPSAASVPRRGPTTALAAERARQARMAVIGPVTERWAPEQAGPVHENWQLAAPIGPATDLWALGALLFRAVQGHAPYPEENTAELVQLVCAEPPAFAEECGPLRPVVESLLRQDPTERLDFEEVRGWLRSLVRSAPEPEAGAHVVAAPPVDPRRLPIVRRRGELVRRRRARLPATTPHARHKRAKDGRPPRPKRLGRNLVLLILLVLAAAVAYAMVFMPKASPNSDSGSRSDGDRTGAAGGVSPAPEQSGGGSEPRPDQTSPGSGKSPSGSSGSTREQTTDPDVAQGFTLRKDPEGFRVAVATGWDRAPKNGRGRIVYSHGDFELIVVPGRDSTADHGSDPLTYQRETESELQPFRDSTWATSSGMRRIDVGGRTMAEGQFTWTDGQGRELFVRNLAIVVGGRYHVVQLRGPEAERDEVTRLYEQASRTYQVTG” belongs “failed”. As to “MDFAFEKVARDWFVRWSKGRSEKYAGQVMRNFERWVFPAIGNLDIRQVRTADVVGCLRVMEARGIVDTLRKTKNSLKMVFAFAVGSGMMEINPVAQIGSGVFERLEHHHHHH”, the protein production result is reported as “failed”. To “MDFGLATTLYPDEYNYQTDAYSPTSSPVDLVQVIQQLHASLDPRTVFACYGKVLGQHLPIQGVRLQSEQHKLSWGKRYGISLKRQIICGGTPLTLQYQLLTPLTPSQSICLQEIEPLLLQPLLNAMQYQEMSMQAMFDALTGLGNRHYYSQSLKNAVARAQRKQGSVSLIVLDLDNFKKLNDKYGHKCGDYILKEFGDIIRSSIRSTDQAFRIGGDEFVVIVQGNIHAAGLLCERIVSATNTHASFHQFGVSCSLGAAEASETMEAEQLYEQADKTLYQAKASGRNCYKLSPTQLS” belongs “failed”.
